How the values were obtained:
[1] = target: T1, MorFDH (Moraxella sp., UniProt O08375, A199G); experiment: spectrophotometric NAD(P)H formation at […] nm; assay type: biochemical; conditions: saturating formate (>15 KM); 0.1 M sodium phosphate pH 7.0, 30°C; read-out: KMKNAD^+
T1 construct: gene fdh; recombinant, plasmid pMorFDH2, E. coli BL21(DE3)/pLysS; no tag mentioned; Phenyl Sepharose and Sephadex G-25
T1 sequence (O08375 2-402 A199G): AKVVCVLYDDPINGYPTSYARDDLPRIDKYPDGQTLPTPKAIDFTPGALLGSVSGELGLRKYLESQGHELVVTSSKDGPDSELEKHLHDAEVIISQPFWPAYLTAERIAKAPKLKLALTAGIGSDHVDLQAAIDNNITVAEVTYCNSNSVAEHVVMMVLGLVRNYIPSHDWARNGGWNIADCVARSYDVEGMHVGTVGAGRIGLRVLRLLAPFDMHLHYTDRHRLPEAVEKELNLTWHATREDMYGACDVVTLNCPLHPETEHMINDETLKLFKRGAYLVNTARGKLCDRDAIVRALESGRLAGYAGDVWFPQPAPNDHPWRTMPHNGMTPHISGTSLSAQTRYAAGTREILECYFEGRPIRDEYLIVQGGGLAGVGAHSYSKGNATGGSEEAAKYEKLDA

[2] = test system: T2, NC(=O)c1ccc[n+]([C@@H]2O[C@H](COP(=O)(O)OP(=O)(O)OC[C@H]3O[C@@H](n4cnc5c(N)ncnc54)[C@H](O)[C@@H]3O)[C@@H](O)[C@H]2O)c1; experiment: purified protein; assay type: biochemical, Pseudomonas sp. 101; conditions: saturating formate (>15 KM), 0.1 M sodium phosphate pH 7.0, 30°C
T2 construct: recombinant, plasmid pPseFDH8, E. coli BL21(DE3)/pLysS; no tag mentioned; Phenyl Sepharose and Sephadex G-25

[3] = test system: T3, NC(=O)c1ccc[n+]([C@@H]2O[C@H](COP(=O)(O)OP(=O)(O)OC[C@H]3O[C@@H](n4cnc5c(N)ncnc54)[C@H](OP(=O)(O)O)[C@@H]3O)[C@@H](O)[C@H]2O)c1; experiment: purified protein; assay type: biochemical, Pseudomonas sp. 101; conditions: saturating formate (>15 KM), 0.1 M sodium phosphate pH 7.0, 30°C
T3 construct: recombinant, plasmid pPseFDH8, E. coli BL21(DE3)/pLysS; no tag mentioned; Phenyl Sepharose and Sephadex G-25

[4] = substrate: NC(=O)c1ccc[n+]([C@@H]2O[C@H](COP(=O)(O)OP(=O)(O)OC[C@H]3O[C@@H](n4cnc5c(N)ncnc54)[C@H](OP(=O)(O)O)[C@@H]3O)[C@@H](O)[C@H]2O)c1; experiment: purified protein; assay type: biochemical, Pseudomonas sp. 101; conditions: saturating formate (>15 KM), 0.1 M sodium phosphate pH 7.0, 30°C, printed with an asterisk

## NC(=O)c1ccc[n+]([C@@H]2O[C@H](COP(=O)(O)OP(=O)(O)OC[C@H]3O[C@@H](n4cnc5c(N)ncnc54)[C@H](O)[C@@H]3O)[C@@H](O)[C@H]2O)c1 [NAD^+]
[1]
  Km: 45 ± 3 µM

## PseFDH (Pseudomonas sp. 101; A199G)
[2]
  Km: 35 ± 2 µM

## PseFDH (Pseudomonas sp. 101; A199G/D222S)
[3]
  Km: 280 ± 25 µM
  kcat: 1.8 ± 0.2 s⁻¹
[2]
  Km: 540 ± 42 µM
  kcat: 5.0 ± 0.2 s⁻¹

## PseFDH (Pseudomonas sp. 101; D222S)
[2]
  Km: 710 ± 45 µM
  kcat: 5.0 ± 0.3 s⁻¹

B1: PseFDH (Pseudomonas sp. 101) (protein)
chain: AKVLCVLYDDPVDGYPKTYARDDLPKIDHYPGGQTLPTPKAIDFTPGQLLGSVSGELGLRKYLESNGHTLVVTSDKDGPDSVFERELVDADVVISQPFWPAYLTPERIAKAKNLKLALTAGIGSDHVDLQSAIDRNVTVAEVTYCNSISVAEHVVMMILSLVRNYLPSHEWARKGGWNIADCVSHAYDLEAMHVGTVAAGRIGLAVLRRLAPFDVHLHYTDRHRLPESVEKELNLTWHATREDMYPVCDVVTLNCPLHPETEHMINDETLKLFKRGAYIVNTARGKLCDRDAVARALESGRLAGYAGDVWFPQPAPKDHPWRTMPYNGMTPHISGTTLTAQARYAAGTREILECFFEGRPIRDEYLIVQGGALAGTGAHSYSKGNATGGSEEAAKFKKAV
notes: recombinant, plasmid pPseFDH8, E. coli BL21(DE3)/pLysS; no tag mentioned; Phenyl Sepharose and Sephadex G-25
[4]
  kcat: 1.3 ± 0.1 s⁻¹

— PMC4410396 (Acta Naturae, 2015)
